According to a protein production outcome set (Wang et al. 2014):

Assay: label from the status in PepcDB records

MIDLDFRKLTIEECLKLSEEEREKLPQLSLETIKRLDPHVKAFISVRENVSVEKKGKFWGIPVAIKDNILTLGMRTTCASRILENYESVFDATVVKKMKEAGFVVVGKANLDEFAMGSSTERSAFFPTRNPWDLERVPGGSSGGSAAAVSAGMVVAALGSDTGGSVRQPASLCGVVGYKPTYGLVSRYGLVAFASSLDQIGPITKTVRDAAILMEIISGRDENDATTVNRKVDFLSEIEEGVSGMKFAVPEEIYEHDIEEGVSERFEEALKLLERLGAKVERVKIPHIKYSVATYYVIAPAEASSNLARFDGVKYGLRIKEKGLREMYMKTRNVGFGEEVRRRIMIGTFTLSAAYYEAYFNKAMKVRRKISDELNEVLSQYDAILTPTSPVTAFKIGEIKDPLTYYLMDIFTIPANLAGLPAISVPFGFSNNLPVGVQVIGRRFADGKVFRIARAIEKNSPYNENGMFPLPEVKA
protein production: not failed

PDATSKKVVPLGVEIYEINGPFFFGVADRLKGVLDVIEETPKVFILRMRRVPVIDATGMHALWEFQESCEKRGTILLLSGVSDRLYGALNRFGFIEALGEERVFDHIDKALAYAKLLVETAEERGRES
protein production: not failed

SELKPTAPPIFTGRPFVVAWDVPTQDCGPRLKVPLDLNAFDVQASPNEGFVNQNITIFYRDRLGLYPRFDSAGRSVHGGVPQNVSLWAHRKMLQKRVEHYIRTQESAGLAVIDWEDWRPVWVRNWQDKDVYRRLSRQLVASRHPDWPPDRIVKQAQYEFEFAAQQFMLETLRYVKAVRPRHLWGFYLFPDCYNHDYVQNWESYTGRCPDVEVARNDQLAWLWAESTALFPSVYLDETLASSRHGRNFVSFRVQEALRVARTHHANHALPVYVFTRPTYSRRLTGLSEMDLISTIGESAALGAAGVILWGDAGYTTSTETCQYLKDYLTRLLVPYVVNVSWATQYCSRAQCHGHGRCVRRNPSASTFLHLSTNSFRLVPGHAPGEPQLRPVGELSWADIDHLQTHFRCQCYLGWSGEQCQWDHRQAAGGASEAWAGSHLTSLLALAALAFTWTL
protein production: failed

MRQRDDSKRIAFLEATVREVADHGFSATSVGKIAKAAGLSPATLYIYYEDKEQLLLATFYYVSDQVIDAALDSFSRGKDLREGLRRQWHTLFRIGLERPELFRYHETFTHSAWMTPEIQARNESRAANLLNAVDQGKQSGLIKPVPFPLLETFMFRPIYHLVQRCLQGSFEGTDEHIELAFNMAWDAVADRRNT
protein production: not failed

MTEVRPGAVASASLWERDAEIAALVEAVDALRADSPSSGSGSLLVFSGEAGIGKTALLGETRRIAESRGCTVWSARGGETVTSVPFNVVRQLLQPALVALMPDEAREYLGDWYDIAGPALGITEPGDRQADPQGVCDGLVAAVRRLARREWPLVLLIDDAHWADQETLHWLAAFAERLHDLSVLVVVARRPGEATEESTRHLDVIAAAAGPVATLSALTPEATAGLTRATVGVHADAPFCREVWAVTGGNPYETVELLAKVQDSELEPSESSAAELRALNRSARGRGLVARLEGLGIDATRFAWAAAILGTGISLDLAAQLAGMQREEALHCADLLGAARILTEPAPVNGRQPDGDLEFVHPLIASAVYNSIPDALRTAMHGVAAQVVTDSGLGAAAASRHLLEVHPDDDAELVDQMREAAREHLAVGAPDAARRCLERALLEPPLSDVHARVLYELGCATLLTSPATTIDYLQAALAMPGLDGDVRVDAVFRLSQALLHNNQVEEAVRTVDAEAARLEPGPARMRLQAVHYMWECVHAGEDISPTSVRALAELAKKCTGKDNSERALLILRGFDAMTRGENAEEVAELCDRALVNGRLAPGLGWTDTEWGIELLMMLASAYAYADRLDRAEALYNEALRAYEGAGWSGGHLALAHSYVGLGHRRRGRLTEAEKYLRESLRIAERVGRGLPLYWSATCGLVDTLLARGHVEEAAEIAERYGFGPPYPTTIVLPDTRSVRGRLLLALGRTEEGVNELEAAEKAATARGHHNTVLAPWALDLARALAVDDPRRAAELAATARRQAERFGTDTAIGEALRCAAALETGQRAASLYKQAVTYLEASPCSYEHAAARVEYGIATRSATELTRGLTLARSCGADGLVAQAQEALDNGPGLR
protein production: failed

YHDETAQDEEDRVLIHFNVRDIKIGPECHDVQPPEGRSRDGLLTVNLREGGRLHLCAETKDDALAWKTALLEANSTPVRVYSPYQDYYEVVPPNAHEATYVRSYYGPPYAGPGVTHVIVREDPCYSAGAPLAMGMLAGAATGAALGSLMWSPCWF
protein production: failed

MILVATKPKDSRGSSSDEMMMNDLDEIIFGENSLGHSSSASGNDQKKQKSSKNNELIHL
protein production: failed
